# In patent publication US20080050387A1, “Non-Androgen Dependent Roles for Androgen Receptor and Non-Androgen Related Inhibitors of Androgen Receptor” (priority 2003, published 2008):
# T1: human glucocorticoid receptor (hGR) (Homo sapiens, UniProt P04150)
# T1 construct: expressed in transfected cells; host or cells: COS-1
# T1 sequence (P04150 1-777): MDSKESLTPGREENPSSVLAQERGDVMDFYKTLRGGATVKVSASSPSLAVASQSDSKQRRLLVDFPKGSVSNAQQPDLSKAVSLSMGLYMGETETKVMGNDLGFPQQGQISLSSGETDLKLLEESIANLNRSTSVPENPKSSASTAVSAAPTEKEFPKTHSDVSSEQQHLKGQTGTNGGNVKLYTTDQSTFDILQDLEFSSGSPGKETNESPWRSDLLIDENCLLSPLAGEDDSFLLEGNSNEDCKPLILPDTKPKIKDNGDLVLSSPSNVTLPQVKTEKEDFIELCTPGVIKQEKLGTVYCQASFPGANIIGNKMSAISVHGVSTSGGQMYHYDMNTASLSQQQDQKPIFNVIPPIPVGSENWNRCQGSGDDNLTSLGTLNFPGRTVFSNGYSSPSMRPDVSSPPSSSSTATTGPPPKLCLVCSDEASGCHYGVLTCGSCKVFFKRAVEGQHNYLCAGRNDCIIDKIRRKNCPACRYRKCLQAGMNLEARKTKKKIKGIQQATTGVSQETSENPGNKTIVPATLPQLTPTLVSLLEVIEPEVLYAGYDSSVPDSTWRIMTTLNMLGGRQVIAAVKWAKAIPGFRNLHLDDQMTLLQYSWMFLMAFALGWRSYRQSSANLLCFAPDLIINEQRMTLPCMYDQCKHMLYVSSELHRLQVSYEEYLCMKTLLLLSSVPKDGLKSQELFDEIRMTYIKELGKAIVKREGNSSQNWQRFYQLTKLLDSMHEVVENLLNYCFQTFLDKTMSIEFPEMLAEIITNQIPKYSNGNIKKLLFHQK
# B1: C-terminus of hRad9: hRad9 aa 269-391 (protein, UniProt Q99638 269-391, looked up, fragment)
# chain: DSHSQDLGSPERHQPVPQLQAHSTPHPDDFANDDIDSYMIAMETTIGNEGSRVLPSISLSPGPQPPKSPGPHSEEEDEAEPSTVPGTPPPKKFRSLFFGSILAPVRSPQGPSPVLAEDSEGEG
# B2: N-hRad9: PCNA-like domain of hRad9, aa 1-270 (protein)
# chain: MKCLVTGGNVKVLGKAVHSLSRIGDELYLEPLEDGLSLRTVNSSRSAYACFLFAPLFFQQYQAATPGQDLLRCKILMKSFLSVFRSLAMLEKTVEKCCISLNGRSSRLVVQLHCKFGVRKTHNLSFQDCESLQAVFDPASCPHMLRAPARVLGEAVLPFSPALAEVTLGIGRGRRVILRSYHEEEADSTAKAMVTEMCLGEEDFQQLQAQEGVAITFCLKEFRGLLSFAESANLNLSIHFDAPGRPAIFTIKDSLLDGHFVLATLSDTDS
# B3: CL-100: MAPK phosphatase-1 (protein, UniProt P28562 1-367, looked up)
# Dual specificity protein …: MVMEVGTLDAGGLRALLGERAAQCLLLDCRSFFAFNAGHIAGSVNVRFSTIVRRRAKGAMGLEHIVPNAELRGRLLAGAYHAVVLLDERSAALDGAKRDGTLALAAGALCREARAAQVFFLKGGYEAFSASCPELCSKQSTPMGLSLPLSTSVPDSAESGCSSCSTPLYDQGGPVEILPFLYLGSAYHASRKDMLDALGITALINVSANCPNHFEGHYQYKSIPVEDNHKADISSWFNEAIDFIDSIKNAGGRVFVHCQAGISRSATICLAYLMRTNRVKLDEAFEFVKQRRSIISPNFSFMGQLLQFESQVLAPHCSAEAGSPAMAVLDRGTSTTTVFNFPVSIPVHSTNSALSYLQSPITTSPSC
# B4: GSK3β: glycogen synthase kinase 3β, serine/threonine protein kinase (SEQ ID NO:5), wild type (protein)
# chain: MSGRPRTTSFAESCKPVQQPSAFGSMKVSRDKDGSKVTTVVATPGQGPDRPQEVSYTDTKVIGNGSFGVVYQAKLCDSGELVAIKKVLQDKRFKNRELQIMRKLDHCNIVRLRYFFYSSGEKKDEVYLNLVLDYVPETVYRVARHYSRAKQTLPVIYVKLYMYQLFRSLAYIHSFGICHRDIKPQNLLLDPDTAVLKLCDFGSAKQLVRGEPNVSYICSRYYRAPELIFGATDYTSSIDVWSAGCVLAELLLGQPIFPGDSGVDQLVEIIKVLGTPTREQIREMNPNYTEFKFPQIKAHPWTKDSSGTGHFTSGVRVFRPRTPPEAIALCSRLLEYTPTARLTPLEACAHSFFDELRDPNVKLPNGRDTPALFNFTTQELSSNPPLATILIPPHARIQAAASTPTNATAASDANTGDRGQTNNAASASASNST
# How the values were obtained:
# AR [1] = assay: Mammalian two-hybrid assay hRad9 / AR in PC-3 cells; assay type: cell-based, human; conditions: 10 nM DHT
# Procedure: (§1) PC-3, CWR22R, and LNCaP cell lines were maintained in […] supplemented with 10% fetal calf serum (FCS). Transient transfection for luciferase assays was carried out in 24-well plates (5×10^4 cells per well) using SuperFect as described previously (Lin, H. K., et al., Embo J 21:4037-48 (2002)). DNA mixtures in transfection assay were indicated in each figure. The total amount of transfected DNA was kept constant (1 μg) by adding the corresponding amounts of empty expression plasmids. After transfection, cells were cultured in […] supplemented with 5% charcoal-stripped FCS in the presence or absence of 10 nM dihydrotestosterone (DHT) for 18 h. Luciferase assays were performed as previously described (Yang, L., et al., J Biol Chem 278:16820-7 (2003)). In Western blotting assays, CWR22R or LNCaP cells were transfected by electroporation using 5×10^6 cells/0.4 ml of RPMI medium containing 2% FCS plus 9 μg of the indicated plasmids. 1 μg of EGFP expression vector was used for transfection efficiency. Electroporation was performed at 250 V and 950 μF using Gene Pulser II (Bio-Rad)
# Target sequence in this assay (P10275 with tags, fused parts or gaps DEL79-80/DUP473-473): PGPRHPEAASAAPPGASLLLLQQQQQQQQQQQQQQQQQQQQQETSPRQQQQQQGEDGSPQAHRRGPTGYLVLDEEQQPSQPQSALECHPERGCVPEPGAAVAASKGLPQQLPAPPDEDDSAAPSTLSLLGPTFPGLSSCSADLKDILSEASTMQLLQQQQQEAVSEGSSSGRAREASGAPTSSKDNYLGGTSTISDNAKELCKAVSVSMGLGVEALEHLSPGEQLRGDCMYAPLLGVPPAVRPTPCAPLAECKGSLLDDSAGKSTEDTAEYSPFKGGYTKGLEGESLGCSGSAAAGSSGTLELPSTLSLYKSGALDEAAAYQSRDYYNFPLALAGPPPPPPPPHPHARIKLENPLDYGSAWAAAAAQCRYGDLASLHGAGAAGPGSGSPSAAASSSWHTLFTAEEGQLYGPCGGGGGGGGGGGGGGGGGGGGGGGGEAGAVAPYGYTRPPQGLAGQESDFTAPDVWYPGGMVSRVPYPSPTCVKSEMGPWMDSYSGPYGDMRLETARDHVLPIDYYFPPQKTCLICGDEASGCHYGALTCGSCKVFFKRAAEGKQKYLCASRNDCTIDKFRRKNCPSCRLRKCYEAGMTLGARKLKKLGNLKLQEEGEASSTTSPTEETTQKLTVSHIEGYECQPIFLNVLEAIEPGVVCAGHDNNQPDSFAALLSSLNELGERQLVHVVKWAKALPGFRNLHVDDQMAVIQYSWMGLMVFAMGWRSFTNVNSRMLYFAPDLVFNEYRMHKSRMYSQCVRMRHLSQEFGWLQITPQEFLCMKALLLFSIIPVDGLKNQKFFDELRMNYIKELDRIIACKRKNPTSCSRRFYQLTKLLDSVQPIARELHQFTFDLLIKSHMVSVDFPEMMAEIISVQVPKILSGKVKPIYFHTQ
# AR [2] = assay: AR transactivation MMTV-LUC assay in PC-3 cells with hRad9; assay type: cell-based, human; conditions: pCMV-AR, hRad9 termini
# Procedure: as §1
# Target sequence in this assay (P10275 with tags, fused parts or gaps DEL79-80/DUP473-473): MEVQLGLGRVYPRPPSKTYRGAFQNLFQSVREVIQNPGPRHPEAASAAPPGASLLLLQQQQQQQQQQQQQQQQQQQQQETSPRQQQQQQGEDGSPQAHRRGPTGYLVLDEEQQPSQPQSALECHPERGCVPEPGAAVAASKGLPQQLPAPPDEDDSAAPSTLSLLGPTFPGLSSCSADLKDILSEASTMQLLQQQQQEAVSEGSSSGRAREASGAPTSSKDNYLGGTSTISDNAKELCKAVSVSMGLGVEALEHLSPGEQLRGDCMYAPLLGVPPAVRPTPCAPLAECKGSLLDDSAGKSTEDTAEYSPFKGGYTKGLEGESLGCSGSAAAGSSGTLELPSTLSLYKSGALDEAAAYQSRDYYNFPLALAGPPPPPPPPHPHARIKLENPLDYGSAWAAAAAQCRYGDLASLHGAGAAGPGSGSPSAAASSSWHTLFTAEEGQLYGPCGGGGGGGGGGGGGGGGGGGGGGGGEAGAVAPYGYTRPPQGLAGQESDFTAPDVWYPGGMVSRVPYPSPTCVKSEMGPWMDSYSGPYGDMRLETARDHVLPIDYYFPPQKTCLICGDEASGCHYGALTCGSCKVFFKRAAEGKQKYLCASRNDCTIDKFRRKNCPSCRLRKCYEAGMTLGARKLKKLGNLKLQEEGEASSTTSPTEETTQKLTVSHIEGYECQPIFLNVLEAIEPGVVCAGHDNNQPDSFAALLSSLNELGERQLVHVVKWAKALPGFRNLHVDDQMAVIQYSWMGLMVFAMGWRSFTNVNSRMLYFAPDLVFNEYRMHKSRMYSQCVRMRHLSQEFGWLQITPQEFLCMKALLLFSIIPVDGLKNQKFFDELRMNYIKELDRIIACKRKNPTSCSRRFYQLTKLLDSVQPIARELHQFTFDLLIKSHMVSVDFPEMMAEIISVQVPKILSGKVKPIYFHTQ
# AR N/C interaction = assay: Reconstituted AR transcription assay (AR N/C interaction) in PC-3 cells; assay type: cell-based, human; conditions: 10 nM DHT, MMTV-LUC
# Procedure: as §1
# [3] = tested on: MAPK (GAL4-Elk1 transactivation); assay: GAL4-Elk1 reporter gene assay (MAPK activation) in MCF7 cells; assay type: cell-based, human; conditions: AR-FL-activated, pG5-luc reporter
# Procedure: Cells were plated in 96-well plates and plasmids at 0.5 μg per well were transfected into cells using SuperFect (Qiagen). The medium was changed 2 h after transfection and cells were cultured in the medium containing 10% CDS-FBS or 0.2% HI-FBS for 16 h, followed by treatment with 50 ng/ml EGF, 100 ng/ml IGF-1,100 ng/ml HRG-α 0.1 nM E2, or 1 nM DHT for another 16 h. Cells were then harvested and the luciferase activity was analyzed using Dual-Luciferase Reporter Assay System (Promega). 5 ng pRL-TK per well was used as internal control.
# AR [4] = assay: AR transactivation luciferase assay in LNCaP cells with GSK3β; assay type: cell-based, human; conditions: MMTV-Luc, DHT
# Procedure: (§2) COS-1 and PC-3 cells were maintained in early to mid-log phase in DMEM medium, supplemented with 10% fetal bovine serum (FBS), 50 units/ml penicillin and 50 μg/ml streptormnycin in incubators with humidified air and 5% carbon dioxide at 37° C. LNCaP cells were maintained in RPMI (GIBCO/BRL) medium. Twenty-four h prior to transfection, cells washed with Hanks' buffered saline solution, trypsinized, and seeded to be a density of 40-60% confluence for transfection. Cells in 12 well plates were refed with fresh medium 2 hours before transfection and transfected according to the “SuperFect Transfection” instructions (QIAGEN). After 2-3 h incubation, cells were treated with medium supplemented with charcoal-dextran treated FBS containing either ethanol or ligands. Cells were further incubated at 37° C. for 24 h, washed with PBS, and harvested.
# Target sequence in this assay (P10275 whole entry T878A): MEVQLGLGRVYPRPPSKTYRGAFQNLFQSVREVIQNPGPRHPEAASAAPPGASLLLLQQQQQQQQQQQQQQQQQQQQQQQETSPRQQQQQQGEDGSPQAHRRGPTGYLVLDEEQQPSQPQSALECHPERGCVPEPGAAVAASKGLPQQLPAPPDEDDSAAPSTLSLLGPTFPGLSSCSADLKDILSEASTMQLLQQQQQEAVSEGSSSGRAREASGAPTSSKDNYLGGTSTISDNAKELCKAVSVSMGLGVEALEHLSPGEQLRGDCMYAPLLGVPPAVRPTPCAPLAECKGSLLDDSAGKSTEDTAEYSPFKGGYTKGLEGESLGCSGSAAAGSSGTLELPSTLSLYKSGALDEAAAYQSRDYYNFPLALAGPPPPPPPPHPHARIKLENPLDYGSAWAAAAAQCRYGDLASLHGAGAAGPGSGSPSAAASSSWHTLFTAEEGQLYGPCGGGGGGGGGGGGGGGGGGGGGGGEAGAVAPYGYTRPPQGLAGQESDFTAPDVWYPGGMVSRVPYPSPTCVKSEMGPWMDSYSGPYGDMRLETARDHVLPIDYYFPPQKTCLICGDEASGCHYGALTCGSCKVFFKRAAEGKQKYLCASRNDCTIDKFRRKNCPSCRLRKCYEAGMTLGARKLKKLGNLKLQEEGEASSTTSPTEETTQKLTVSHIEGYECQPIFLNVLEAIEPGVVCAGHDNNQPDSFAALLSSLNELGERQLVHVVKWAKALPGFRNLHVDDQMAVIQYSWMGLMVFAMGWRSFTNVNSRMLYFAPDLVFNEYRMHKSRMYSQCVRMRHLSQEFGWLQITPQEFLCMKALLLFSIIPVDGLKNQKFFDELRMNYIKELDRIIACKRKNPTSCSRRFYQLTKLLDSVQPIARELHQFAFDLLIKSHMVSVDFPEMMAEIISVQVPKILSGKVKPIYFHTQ
# AR [5] = assay: AR transactivation luciferase assay in COS-1 cells with GSK3β; assay type: cell-based, human
# Procedure: as §2
# AR [6] = assay: GST pull-down assay GSK3β / AR; assay type: binding, human; conditions: presence or absence of DHT
# Procedure: 5 μl of in vitro-translated β5S]-labeled AR was incubated with the GST or GST-GSK3β bound to glutathione-Sepharose beads in a pull-down assay. After extensive washing, bead-bound protein complexes were loaded onto 8% SDS-PAGE and analyzed by Phosphorlmager. The input represents 20% amount of [^35S]-labeled proteins used in each pull-down assay. […] COS-1 cells were solubilized in RIPA buffer containing 0.5% NP-40 and protease inhibitors. Immunoprecipitation was performed using mouse HA antibody (1:1000) or normal mouse IgG (N-IgG) and then analyzed by Western blot with anti-AR NH27 (1:1000) or anti-GSK3β (1:1000) antibodies, followed by incubation with AP conjugate goat anti-rabbit or rabbit anti-mouse IgM antibodies, and visualized with AP conjugate kit (Bio-Rad).
# Target sequence in this assay (P49841 whole entry partner): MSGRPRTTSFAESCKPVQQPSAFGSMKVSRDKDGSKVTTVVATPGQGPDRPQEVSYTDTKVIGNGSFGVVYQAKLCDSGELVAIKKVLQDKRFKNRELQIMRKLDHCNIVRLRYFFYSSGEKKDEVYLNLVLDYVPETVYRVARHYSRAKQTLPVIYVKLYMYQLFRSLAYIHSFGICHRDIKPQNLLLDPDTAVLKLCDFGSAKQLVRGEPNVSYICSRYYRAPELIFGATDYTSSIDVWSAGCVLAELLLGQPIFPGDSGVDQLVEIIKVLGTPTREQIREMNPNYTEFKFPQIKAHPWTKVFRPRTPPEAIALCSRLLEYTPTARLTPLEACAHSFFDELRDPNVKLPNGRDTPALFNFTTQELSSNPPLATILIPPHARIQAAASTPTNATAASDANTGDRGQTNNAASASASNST
# AR [7] = assay: In vitro kinase assay of GSK3β on AR fragments; assay type: biochemical, human; conditions: 30 min at 30° C.
# [8] = target: T1, human glucocorticoid receptor (hGR); assay: hGR transactivation luciferase assay in COS-1 cells with GSK3β; assay type: cell-based
# Procedure: as §2
# [9] = tested on: PSA expression in LNCaP cells; assay: PSA promoter activity and PSA mRNA (Northern blot) in LNCaP cells with GSK3β; assay type: cell-based, human
# Procedure: as §2
# AR [10] = assay: AR expression by immunoblot in LNCaP cells transfected with GSK3β; assay type: cell-based, human; conditions: pCMV-GSK3β vs pCMV vector
# Target sequence in this assay (P10275 whole entry T878A): as the sequence (P10275 whole entry T878A) above
# AR AF-1 / AF-2 = assay: GAL4-ARN / GAL4-AR-LBD pG5-Luc reporter assay in COS-1 cells; assay type: cell-based, human
# Procedure: as §2
# AR N/C interaction, sequence (P10275 557-920): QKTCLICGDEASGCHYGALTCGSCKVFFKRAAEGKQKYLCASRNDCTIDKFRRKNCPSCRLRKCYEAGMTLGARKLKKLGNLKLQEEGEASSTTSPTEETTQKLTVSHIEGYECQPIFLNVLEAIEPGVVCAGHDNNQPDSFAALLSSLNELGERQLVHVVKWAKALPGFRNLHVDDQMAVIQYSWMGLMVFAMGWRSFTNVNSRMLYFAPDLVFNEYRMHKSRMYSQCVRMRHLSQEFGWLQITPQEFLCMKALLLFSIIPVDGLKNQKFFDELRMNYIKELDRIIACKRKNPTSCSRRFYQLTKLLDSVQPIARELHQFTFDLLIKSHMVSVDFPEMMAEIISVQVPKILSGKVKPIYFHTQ
molecule,measurement,setting,value
B1,interaction with AR,AR [1],strong interaction
same,AR-mediated transactivation (full length AR),AR [2],suppressed
same,interaction between AR N- and C-terminus,AR N/C interaction,potently inhibit
B2,interaction with AR,AR [1],did not
same,interaction between AR N- and C-terminus,AR N/C interaction,no effect
B3,AR-activated GAL4-Elk1 activity,[3],diminished
B4,activity of AR,AR [4],reduced
same,AR-mediated transcription of the luciferase reporter reduced by,"AR [5]; ARE4-Luc, 10 nM DHT",about 40%
same,DHT-mediated AR transactivation / AR transcriptional activity,AR [5]; MMTV-Luc,inhibits
same,binding of 35S-methionine-labeled AR to GST-GSK3β,AR [6],bind specifically
same,phosphorylation of GST-AR38-560 (N-terminus),AR [7],significantly phosphorylated
same,phosphorylation of GST-AR-DBD-LBD or 6His-AR-LBD,AR [7],slightly phosphorylated
same,hGR transactivation,[8],failed to inhibit
same,expression of PSA mRNA,"[9]; Northern blot, 10 nM DHT",reduced
same,DHT-mediated induction of transcription from the PSA promoter,[9]; PSA-luc,repressed
same,endogenous expression of AR,AR [10],little change
same,activity of GAL4-AR-LBD,AR AF-1 / AF-2,did not influence
same,constitutive transcriptional activity of GAL4-ARN,AR AF-1 / AF-2,inhibited
